# B1: SG-11: Roseburia hominis protein comprising SEQ ID NO:3; tested as SEQ ID NO:5, SEQ ID NO:7 or FLAG-tagged SEQ ID NO:9 (protein, listed as Rosburia hominis)
# chain: LEGEESVVYVGKKGVIASLDVETLDQSYYDETELKSYVDAEVEDYTAEHGKNAVKVESLKVEDGVAKLKMKYKTPEDYTAFNGIELYQGKVVASLAAGYVYDGEFARVEEGKVVGAATKQDIYSEDDLKVAIIRANTDVKVDGEICYVSCQNVKLTGKDSVSIRDGYYLETGSVTASVDVTGQESVGTEQLSGTEQMEMTGEPVNADDTEQTEAAAGDGSFETDVYTFIVYK
# What was measured:
# [1] = stability by analytical size exclusion chromatography and Ellman's reagent assay (Example 9); type: physicochemical
# Method: The stability of SG-11 (SEQ ID NO:9) was evaluated following the incubation at 37° C. for one week and at 4° C. for 3 weeks in Buffer C (100 mM sodium phosphate, pH 7.0, 0.5 M sorbitol). The stability was assessed by monitoring aggregation formation with analytical size exclusion chromatography (SEC) equilibrated with Buffer D (100 mM sodium phosphate, pH 7.0, 10% glycerol). […] The cause of the aggregation was investigated as follows. There are two cysteine residues found in SG-11 at positions 147 and 151 (relative to SEQ ID NO:7). […] As free sulphydryl groups could cause aggregation by forming unpreferable intermolecular disulfide bonds, it was examined whether the presence of reducing agent, such as β-mercaptoethanol, could prevent the aggregation.
molecule,measurement,setting,value
B1,aggregation by analytical SEC,[1]; 4-days incubation at 37° C. in the presence of 2.5% (v/v) β-mercaptoethanol,greatly suppressed
same,aggregation formation by analytical SEC,"[1]; 4° C. for 3 weeks in Buffer C (100 mM sodium phosphate, pH 7.0, 0.5 M sorbitol), vs freshly thawed protein",No noticeable change
same,aggregation formation by analytical SEC,[1]; 37° C. for one week in Buffer C,clearly showed aggregation peaks
same,free sulfhydryl groups (Ellman's reagent assay),[1]; SG-11 (SEQ ID NO:9),presence of free sulfhydryl groups
same,cleavage by trypsin (SDS-PAGE),trypsin,a predominant band is generated in the presence of trypsin
